The values that follow come from patent US20130058962A1 (published 2013).

Substitutions are numbered along the chain they refer to. Values joined by “and” are separate entries in the source; they are usually repeats but may differ in a detail not shown here. Equal entries are not always repeated.

Usually Kd stands for a measure of binding affinity in units of concentration. A higher Kd goes with a looser complex.

The target of experiment [1] is T1, Botulinum neurotoxin serotype A1 (BoNT/A) holotoxin (Clostridium botulinum, UniProt P0DPI1 2-1296). Kind of experiment: binding competition assay.
The target of experiment [2] is T1, Botulinum neurotoxin serotype A1 …. Description: method not stated.
For a further experiment, the target named is BoNT/A heavy chain (Clostridium botulinum, UniProt P0DPI1 449-1296). Description: ELISA on BoNT subunits / Western blot of reduced holotoxin. In general terms: An ELISA detects its analyte on a solid surface through an enzyme-linked reagent.
Experiment [3] addresses purified recombinant BoNT/A light chain (Clostridium botulinum, UniProt P0DPI1 2-448). The experiment is described as above.
Experiment [4] addresses Clostridium difficile toxin A (TcdA) holotoxin (Clostridium difficile) (UniProt P16154). Description: cell-based or functional assay.
In experiment [5] the target is Clostridium difficile toxin B (TcdB) holotoxin (Clostridium difficile) (UniProt P18177). Kind of experiment: cell-based or functional assay.
Chain of Clostridium difficile toxin B (TcdB) holotoxin (Clostridium difficile) (P18177 2-2366): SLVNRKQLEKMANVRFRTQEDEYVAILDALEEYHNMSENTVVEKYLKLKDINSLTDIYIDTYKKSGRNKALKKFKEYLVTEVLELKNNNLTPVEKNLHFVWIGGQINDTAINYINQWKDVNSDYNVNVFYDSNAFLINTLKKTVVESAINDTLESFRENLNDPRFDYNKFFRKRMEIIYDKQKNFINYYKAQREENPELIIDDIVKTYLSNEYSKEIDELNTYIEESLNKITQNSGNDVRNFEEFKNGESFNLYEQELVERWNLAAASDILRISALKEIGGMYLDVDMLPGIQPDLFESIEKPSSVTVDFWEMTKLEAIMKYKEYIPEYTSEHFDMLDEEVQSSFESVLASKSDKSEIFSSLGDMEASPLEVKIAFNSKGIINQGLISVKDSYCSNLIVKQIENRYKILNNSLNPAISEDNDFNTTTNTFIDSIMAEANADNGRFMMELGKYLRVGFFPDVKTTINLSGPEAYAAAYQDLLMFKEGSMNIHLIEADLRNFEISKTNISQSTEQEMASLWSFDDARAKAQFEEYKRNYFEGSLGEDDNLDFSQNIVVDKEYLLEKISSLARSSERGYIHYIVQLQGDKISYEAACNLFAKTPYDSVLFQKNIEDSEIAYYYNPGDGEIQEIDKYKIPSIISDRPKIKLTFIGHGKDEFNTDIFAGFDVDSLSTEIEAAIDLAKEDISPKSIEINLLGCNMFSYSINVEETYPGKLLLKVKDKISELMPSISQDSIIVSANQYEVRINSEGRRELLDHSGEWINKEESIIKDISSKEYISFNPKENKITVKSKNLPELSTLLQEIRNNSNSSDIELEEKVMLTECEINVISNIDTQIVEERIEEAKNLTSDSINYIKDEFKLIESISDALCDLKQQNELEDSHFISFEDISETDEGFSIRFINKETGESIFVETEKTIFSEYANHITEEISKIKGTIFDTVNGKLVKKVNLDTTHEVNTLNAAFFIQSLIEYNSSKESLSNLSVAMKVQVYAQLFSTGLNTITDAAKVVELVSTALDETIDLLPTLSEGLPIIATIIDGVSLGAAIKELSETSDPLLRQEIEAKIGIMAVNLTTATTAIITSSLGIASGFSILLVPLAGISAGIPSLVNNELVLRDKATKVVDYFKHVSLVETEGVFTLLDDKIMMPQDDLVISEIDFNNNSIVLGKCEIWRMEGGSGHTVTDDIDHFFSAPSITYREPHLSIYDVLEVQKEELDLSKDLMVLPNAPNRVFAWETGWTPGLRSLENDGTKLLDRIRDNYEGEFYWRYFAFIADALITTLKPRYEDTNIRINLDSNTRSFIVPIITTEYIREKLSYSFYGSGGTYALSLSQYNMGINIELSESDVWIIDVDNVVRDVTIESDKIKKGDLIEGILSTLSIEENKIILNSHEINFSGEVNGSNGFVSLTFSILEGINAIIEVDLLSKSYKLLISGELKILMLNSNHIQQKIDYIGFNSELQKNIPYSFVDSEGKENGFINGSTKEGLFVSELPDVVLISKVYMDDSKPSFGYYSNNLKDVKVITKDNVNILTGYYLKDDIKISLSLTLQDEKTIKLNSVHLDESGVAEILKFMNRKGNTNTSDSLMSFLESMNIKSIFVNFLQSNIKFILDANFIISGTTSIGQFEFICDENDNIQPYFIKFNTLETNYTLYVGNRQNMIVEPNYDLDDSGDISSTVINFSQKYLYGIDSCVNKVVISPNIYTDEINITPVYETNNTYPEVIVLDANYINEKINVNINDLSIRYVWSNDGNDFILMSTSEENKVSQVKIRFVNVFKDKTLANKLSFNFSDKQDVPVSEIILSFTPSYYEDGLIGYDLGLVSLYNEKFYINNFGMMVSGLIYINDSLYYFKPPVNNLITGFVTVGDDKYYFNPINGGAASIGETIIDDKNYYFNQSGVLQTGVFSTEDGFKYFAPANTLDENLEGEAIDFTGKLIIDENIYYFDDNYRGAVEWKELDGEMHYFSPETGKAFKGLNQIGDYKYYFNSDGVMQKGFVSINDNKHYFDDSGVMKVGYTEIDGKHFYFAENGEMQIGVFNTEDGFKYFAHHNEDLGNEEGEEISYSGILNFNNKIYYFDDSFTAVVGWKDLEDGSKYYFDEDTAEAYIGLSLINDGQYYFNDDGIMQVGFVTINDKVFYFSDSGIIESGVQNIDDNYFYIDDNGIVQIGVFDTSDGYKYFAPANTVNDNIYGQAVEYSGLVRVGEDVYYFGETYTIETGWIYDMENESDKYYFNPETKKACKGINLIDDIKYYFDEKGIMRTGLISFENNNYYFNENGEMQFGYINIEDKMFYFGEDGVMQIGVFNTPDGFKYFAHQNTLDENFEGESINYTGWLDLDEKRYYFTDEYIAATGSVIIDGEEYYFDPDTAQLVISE

Chain of Clostridium difficile toxin A (TcdA) holotoxin (Clostridium difficile) (P16154 whole entry): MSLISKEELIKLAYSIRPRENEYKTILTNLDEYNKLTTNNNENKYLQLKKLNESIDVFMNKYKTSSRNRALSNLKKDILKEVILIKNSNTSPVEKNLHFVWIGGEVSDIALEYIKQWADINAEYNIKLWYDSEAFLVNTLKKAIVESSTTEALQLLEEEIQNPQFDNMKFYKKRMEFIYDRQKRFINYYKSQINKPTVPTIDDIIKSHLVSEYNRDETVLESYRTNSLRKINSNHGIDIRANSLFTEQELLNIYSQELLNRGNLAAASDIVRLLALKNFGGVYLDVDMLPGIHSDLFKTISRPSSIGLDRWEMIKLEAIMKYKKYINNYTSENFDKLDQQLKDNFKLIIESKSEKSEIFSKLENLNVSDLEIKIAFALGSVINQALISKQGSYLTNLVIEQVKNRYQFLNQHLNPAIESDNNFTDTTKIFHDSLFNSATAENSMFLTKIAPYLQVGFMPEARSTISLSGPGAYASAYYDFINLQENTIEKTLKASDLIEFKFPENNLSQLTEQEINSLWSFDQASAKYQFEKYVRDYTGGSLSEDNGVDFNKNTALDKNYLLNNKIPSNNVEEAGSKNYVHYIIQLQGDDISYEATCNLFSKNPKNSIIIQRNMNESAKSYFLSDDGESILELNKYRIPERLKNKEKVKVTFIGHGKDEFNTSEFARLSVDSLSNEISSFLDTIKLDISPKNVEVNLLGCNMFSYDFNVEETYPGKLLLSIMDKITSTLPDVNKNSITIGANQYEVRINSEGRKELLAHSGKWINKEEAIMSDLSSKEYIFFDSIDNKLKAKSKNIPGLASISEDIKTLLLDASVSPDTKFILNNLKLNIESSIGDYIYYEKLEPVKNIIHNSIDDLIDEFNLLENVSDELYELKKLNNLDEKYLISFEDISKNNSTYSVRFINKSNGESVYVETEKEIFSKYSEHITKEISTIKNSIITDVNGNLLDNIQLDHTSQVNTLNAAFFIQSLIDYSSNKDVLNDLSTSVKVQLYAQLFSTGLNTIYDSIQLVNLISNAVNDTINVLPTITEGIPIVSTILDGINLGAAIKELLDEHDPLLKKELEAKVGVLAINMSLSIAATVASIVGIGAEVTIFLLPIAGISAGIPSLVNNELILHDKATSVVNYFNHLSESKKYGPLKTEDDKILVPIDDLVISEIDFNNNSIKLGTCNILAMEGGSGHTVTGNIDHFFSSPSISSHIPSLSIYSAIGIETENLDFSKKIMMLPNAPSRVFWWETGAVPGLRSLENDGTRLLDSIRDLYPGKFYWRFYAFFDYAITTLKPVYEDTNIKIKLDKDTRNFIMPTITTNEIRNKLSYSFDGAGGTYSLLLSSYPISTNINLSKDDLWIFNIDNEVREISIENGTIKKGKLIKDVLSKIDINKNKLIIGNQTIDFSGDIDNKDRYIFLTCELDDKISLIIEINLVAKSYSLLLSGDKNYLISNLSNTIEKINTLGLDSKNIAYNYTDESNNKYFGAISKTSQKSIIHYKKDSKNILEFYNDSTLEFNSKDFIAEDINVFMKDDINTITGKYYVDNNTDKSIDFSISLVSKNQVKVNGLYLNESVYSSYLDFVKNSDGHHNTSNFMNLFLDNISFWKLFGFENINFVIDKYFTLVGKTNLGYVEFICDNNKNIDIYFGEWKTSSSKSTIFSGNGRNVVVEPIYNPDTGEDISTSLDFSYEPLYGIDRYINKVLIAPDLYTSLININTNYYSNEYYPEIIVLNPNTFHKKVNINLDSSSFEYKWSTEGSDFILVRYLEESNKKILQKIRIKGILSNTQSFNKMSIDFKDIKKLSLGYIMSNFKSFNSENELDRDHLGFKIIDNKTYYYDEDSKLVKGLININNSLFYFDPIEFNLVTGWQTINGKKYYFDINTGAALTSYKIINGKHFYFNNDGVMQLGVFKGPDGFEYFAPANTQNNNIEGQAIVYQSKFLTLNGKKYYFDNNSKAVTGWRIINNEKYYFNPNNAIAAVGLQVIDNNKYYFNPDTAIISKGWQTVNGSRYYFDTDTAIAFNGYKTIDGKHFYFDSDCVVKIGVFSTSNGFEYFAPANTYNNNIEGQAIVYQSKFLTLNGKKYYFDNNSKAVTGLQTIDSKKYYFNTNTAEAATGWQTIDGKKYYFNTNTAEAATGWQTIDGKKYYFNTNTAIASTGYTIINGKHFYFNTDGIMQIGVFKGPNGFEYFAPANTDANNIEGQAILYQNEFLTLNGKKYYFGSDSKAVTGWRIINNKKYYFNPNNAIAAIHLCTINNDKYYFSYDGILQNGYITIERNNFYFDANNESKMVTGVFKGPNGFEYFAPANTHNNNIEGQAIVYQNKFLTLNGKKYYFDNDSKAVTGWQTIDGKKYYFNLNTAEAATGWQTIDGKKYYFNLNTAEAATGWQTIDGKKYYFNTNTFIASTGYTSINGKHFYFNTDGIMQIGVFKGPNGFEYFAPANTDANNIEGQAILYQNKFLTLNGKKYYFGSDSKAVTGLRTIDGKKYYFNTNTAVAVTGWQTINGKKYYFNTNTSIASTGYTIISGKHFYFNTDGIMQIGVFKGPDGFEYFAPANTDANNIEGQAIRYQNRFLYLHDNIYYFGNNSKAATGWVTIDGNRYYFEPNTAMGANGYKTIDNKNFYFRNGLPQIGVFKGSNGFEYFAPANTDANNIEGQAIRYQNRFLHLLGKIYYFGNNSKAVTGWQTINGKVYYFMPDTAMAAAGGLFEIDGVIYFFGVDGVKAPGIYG

B1: JDQ-E9 (VHH)
VHH: QVQLVESGGGLVRPGGSLRLSCVVSGFAYEMPMMGWYRQAPGNQRELVATIGTGGRMNYADSVKGRFTISRDNAKNTVYLQMNSLKPEDTAAYYCKIEFTNYWGQGTQVTVSS
In the case of B1, in experiment [1], the binding result is recorded as “binds”.

B2: JDQ-B2 (VHH)
VHH: QVQLVESGGGLVQPGGSLRLSCTVSGSIFDLPGMNWYRQAPGAQRELVADISSDGRRTNYADSVKGRFTMSRDNAKKTVYLQMDSLKPDDTAVYYCNVKFTHHWGQGIQVTVSS
Take B2: in experiment [1], the binding result is reported as “binds”.

B3: JDQ-C5 (VHH)
VHH: B2 VHH with D30G, N35S, R56G, N59H, M70I, A75D
With B3, the binding result in experiment [1] is “binds”.

B4: JDQ-F9 (VHH)
VHH: QVQLVESGGGLVQDGGSLRLSCTTSGSIDSFNAIEWYRQAPGKQRELVASISSDGRRTNYADSVKGRFTISGDNAKNTVYLQMNSLKPEDTAVYYCHRPFTHYWGQGTQVTVSS
For the molecule B4, the binding result in experiment [1] is on record as “binds”.

B5: scFv#7 (scFv)
scFv: SYELTQPPSMSVALGQTAKVTCQGDNLENFYVQWHQQKPGQAPVTVIFQDNKRPSGIPDRFSGSNSGNTATLTISGARTEDEADYYCQSGHSSIGGVFGSGTSLTVLGQPAAAGGGGSGGGGSGGGGSARQVQLQESGPSLVKPSQTLSLTCTVSGFSLTGNSVTWVRQAPGNVPEWLGGISRGGRTYYDTALKSRLSITRDTSKRQVSLSLSSVTTEDTAMYFCARSAYSTLYDYEYAADIYDWGPGLLVTVSSTSGAPVPYPDPLEPRAA
Take B5: the dissociation constant Kd in experiment [2] was about 1 nM.

B6: ciA-G5 (VHH)
VHH: QVQLVESGGGLVQPGGSLRLSCQVSGFTFGDWVMSWFRQAPGKEREFVASITATSSLKYYADSVKGRFTISRDNVNNTLFLQMDRLKSEDTAVYYCRSPNYWGQGTQVTVSA
As to B6, the binding result (in the experiment with BoNT/A heavy chain; in experiment [3]) was “no binding” each time.

B7: ciA-A5 (VHH)
VHH: QVQLVESGGGLVQPGGSLRLSCAASAGNLDYYAIGWFRQAPGKEREGVSCISSSDGSTVYTDSVKGRFTISRDNTKNTVDLQMDNLKPEDTAVYYCATVVNYYCTAGGSIHASPYEIWGQGTQVTVSS
For B7, the binding result (with BoNT/A heavy chain; in experiment [3]) was “no binding” in each case.

B8: 5D/AA6 VHH heterodimer (bispecific antibody)
chain: QVQLVESGGGLVQPGGSLRLSCEASGFTLDYYGIGWFRQPPGKEREAVSYISASARTILYADSVKGRFTISRDNAKNAVYLQMNSLKREDTAVYYCARRRFSASSVNRWLADDYDVWGRGTQVAVSSEPKTPKPQGGGGSGGGGSGGGGSQLQLVETGGGLVQPGGSLRLSCAASGFTFSDYVMTWVRQAPGKGPEWIATINTDGSTMRDDSTKGRFTISRDNAKNTLYLQMTSLKPEDTALYYCARGRVISASAIRGAVRGPGTQVTVSSEPKTPKPQP
B8 came in with a fold neutralization of TcdA against the 5D/AH3 heterodimer (CT26 cell rounding) in experiment [4] of 5 fold. In addition, the fold neutralization of TcdB against the 5D/AH3 heterodimer in experiment [5] was 3 fold and 4 fold.
